From US20230203117A1 (published 2023)

What was measured:
G3 [1] = experiment: SPR (Biacore); without IL-10Rα
G3 (+Rα) = experiment: SPR (Biacore); pre-bound to IL-10Rα
A11 (+Rα) = A11 (+Rα) (UniProt Q13651 22-235); experiment: SPR (Biacore); pre-bound to IL-10Rα
B11 (+Rα) = B11 (+Rα) (UniProt Q13651 22-235); experiment: SPR (Biacore); pre-bound to IL-10Rα
R5A11 (+Rα) = R5A11 (+Rα) (UniProt Q13651 22-235); experiment: SPR (Biacore); pre-bound to IL-10Rα
R5A11 = experiment: SPR (Biacore); monomer, without IL-10Rα
B11 = experiment: SPR (Biacore); monomer, without IL-10Rα
G3 [2] = experiment: SPR (Biacore); monomer, without IL-10Rα
A11 = experiment: SPR (Biacore); monomer, without IL-10Rα

B1: IL-10Rβ (receptor)
chain: MVPPPENVRMNSVNFKNILQWESPAFAKGNLTFTAQYLSYRIFQDKCMNTTLTECDFSSLSKYGDHTLRVRAEFADEHSDWVNITFCPVDDTIIGPPGMQVEVLADSLHMRFLAPKIENEYETWTMKNVYNSWTYNVQYWKNGTDEKFQITPQYDFEVLRNLEPWTTYCVQVRGFLPDRNKAGEWSEPVCEQTTHDETVPSLNDIFEAQKIEWHWHHHHHH
modifications: biotinylated with BirA ligase on the biotin acceptor peptide
Which Kd (G3 [1]) does the source give for B1 here?
Its Kd is 2.4 µM.

What about the Kd (G3 (+Rα)) of the same binder?
Its Kd is 0.008 µM.

What about the Kd (A11 (+Rα)) of the same binder?
The Kd was 0.023 µM.

What about the Kd (B11 (+Rα)) of the same binder?
Its Kd is 0.065 µM.

And the Kd (R5A11 (+Rα))?
The Kd was 0.1 µM.

What about the Kd (R5A11) of the same binder?
Its Kd is 8.9 µM.

What about the Kd (B11) of the same binder?
Its Kd is 9.4 µM.

And the Kd (G3 [2])?
The Kd was 2.4 µM.

What about the Kd (A11) of the same binder?
The Kd was 2.4 µM.
